US20220064331A1 (Genentech, published 2022)

Columns and labels:
[1] = target: T1, human KLB expressed on cells (human, UniProt Q86Z14 53-1044); assay: FACS on 293 cells expressing hKLB, antibody at 0.8 µg/ml, median shift
T1 construct: on transfected 293 / HEK293 cells; also called hKLB; beta-Klotho

rat KLB (+N-ter FLAG) = target: T2, rat KLB (+N-ter FLAG) (rat, UniProt Q99N32 53-989 (mouse entry)); assay: FACS on transfected HEK293T cells
T2 construct: expressed from KLB cDNA on HEK293T cells and read by FACS
T2 chain: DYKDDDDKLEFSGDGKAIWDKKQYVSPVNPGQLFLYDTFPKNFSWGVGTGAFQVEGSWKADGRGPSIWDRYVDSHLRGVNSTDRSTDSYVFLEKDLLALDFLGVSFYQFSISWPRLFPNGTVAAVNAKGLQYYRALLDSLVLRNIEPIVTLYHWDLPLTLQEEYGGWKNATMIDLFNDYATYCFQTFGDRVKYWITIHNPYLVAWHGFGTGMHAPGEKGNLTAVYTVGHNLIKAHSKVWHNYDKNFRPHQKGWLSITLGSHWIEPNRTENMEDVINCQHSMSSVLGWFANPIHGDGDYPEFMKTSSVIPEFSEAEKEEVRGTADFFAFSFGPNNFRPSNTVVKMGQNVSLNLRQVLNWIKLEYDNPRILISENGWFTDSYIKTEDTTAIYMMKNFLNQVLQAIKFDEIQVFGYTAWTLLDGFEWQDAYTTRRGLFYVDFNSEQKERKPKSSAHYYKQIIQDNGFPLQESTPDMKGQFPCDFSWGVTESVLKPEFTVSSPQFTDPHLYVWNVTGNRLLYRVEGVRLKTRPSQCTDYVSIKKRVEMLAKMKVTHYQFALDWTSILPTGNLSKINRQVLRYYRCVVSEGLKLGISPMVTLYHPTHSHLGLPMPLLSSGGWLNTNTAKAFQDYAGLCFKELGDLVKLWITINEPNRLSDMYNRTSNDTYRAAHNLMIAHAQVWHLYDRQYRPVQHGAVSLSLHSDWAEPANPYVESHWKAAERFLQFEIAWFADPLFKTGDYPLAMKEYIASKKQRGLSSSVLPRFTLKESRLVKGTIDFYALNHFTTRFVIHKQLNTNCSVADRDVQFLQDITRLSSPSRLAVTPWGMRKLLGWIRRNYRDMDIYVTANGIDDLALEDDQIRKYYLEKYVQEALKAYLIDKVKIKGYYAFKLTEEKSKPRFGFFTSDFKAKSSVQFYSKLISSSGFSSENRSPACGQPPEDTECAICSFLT
Protocol: (§1) Species cross reactivity of the disclosed anti-KLB antibodies were analyzed by FACS analysis using KLB cDNA from mouse, rat, rabbit, cynomolgus monkey and rhesus monkey cloned into pRK mammalian expression vectors transiently transfected into HEK293T cells. The KLB extracellular domain polypeptide sequences that were expressed are as follows: […]

[2] = target: T3, cynomolgus monkey KLB (+N-ter FLAG) (cynomolgus monkey, UniProt Q86Z14 53-991 (human entry)); assay: FACS on transfected HEK293T cells
T3 construct: expressed from KLB cDNA on HEK293T cells and read by FACS; also called Cyno KLB
T3 chain: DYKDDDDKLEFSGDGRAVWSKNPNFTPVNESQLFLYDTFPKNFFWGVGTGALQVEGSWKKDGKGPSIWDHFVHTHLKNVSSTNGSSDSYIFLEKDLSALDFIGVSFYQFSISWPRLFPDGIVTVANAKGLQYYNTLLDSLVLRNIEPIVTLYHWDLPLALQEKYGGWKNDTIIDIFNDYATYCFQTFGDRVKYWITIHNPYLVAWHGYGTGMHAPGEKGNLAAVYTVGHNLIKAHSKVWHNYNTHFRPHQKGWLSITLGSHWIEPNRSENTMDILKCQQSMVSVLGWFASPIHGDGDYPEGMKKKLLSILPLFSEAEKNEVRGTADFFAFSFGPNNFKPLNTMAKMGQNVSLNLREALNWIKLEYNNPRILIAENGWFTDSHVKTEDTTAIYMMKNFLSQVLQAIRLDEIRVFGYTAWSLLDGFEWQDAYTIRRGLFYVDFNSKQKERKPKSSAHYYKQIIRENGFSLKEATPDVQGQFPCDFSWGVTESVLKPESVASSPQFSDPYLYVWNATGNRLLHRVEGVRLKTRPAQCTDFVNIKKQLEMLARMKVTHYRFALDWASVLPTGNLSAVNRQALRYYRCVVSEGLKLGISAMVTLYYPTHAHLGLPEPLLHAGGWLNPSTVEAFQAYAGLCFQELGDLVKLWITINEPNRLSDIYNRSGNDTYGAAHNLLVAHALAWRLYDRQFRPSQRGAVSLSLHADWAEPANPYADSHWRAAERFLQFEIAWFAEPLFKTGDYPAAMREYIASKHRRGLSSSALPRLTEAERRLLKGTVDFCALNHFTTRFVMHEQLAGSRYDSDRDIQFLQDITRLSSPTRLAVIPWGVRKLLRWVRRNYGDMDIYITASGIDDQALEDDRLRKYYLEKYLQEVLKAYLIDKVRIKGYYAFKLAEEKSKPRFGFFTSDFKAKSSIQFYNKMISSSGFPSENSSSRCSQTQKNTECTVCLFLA
Protocol: as §1

Binder	binding result [1]	binding result (rat KLB (+N-ter FLAG))	binding result [2]
5F8 (antibody, V domains shown, murine hybridoma-derived anti-KLB antibody) VH: EVQLQQSGTELVRPGASVKLSCTSSDFNIKDTYIHWVKQRPEQGLDWLGRIDPANGNTKYDPKFQGKAAMTSDTSSNTAYLRLSSLTSEDTAVYYCASSGNYGAMDYWGQGTSVTVSS VL: ESVLTQSPALMSASLGEKVTMTCRASSSVNHMYWYQQKSDASPKLWIYYTSTLAPGVPARFSGSGSGNSYSLTISSMEGEDAATYYCQQFTISPSMYTFGGGTKLEIK	binds	no binding	binds
8H7 (antibody, V domains shown, murine hybridoma-derived anti-KLB antibody) VH: QVQLQQPGAEIVKPGASVRLSCKASGYSFTSYWIHWVKQRPGQGLEWIGEIDPSVSNSNYNQKFKGKATLTADKSSSTAYMQLSGLTSEDSAVYFCVRLGVMVYGSSPFWFAYWGQGTLVTVSA VL: DIVMTQSQKFMSTSVGDRVSITCKASQFVSDAVAWYQQKPGQSPKLLICSASYRYTGVPDRFTGSGSGTDFTFTISSVRTEDLAVYYCQQHYIVPYTFGGGTTLEIE	binds	no binding	binds
21H3 (antibody, V domains shown, murine hybridoma-derived anti-KLB antibody) VH: QVQLQQPGAEIVKPGASVRLSCKASGYSFTSYWIHWVKQRPGQGLEWIGEIDPSVSNSNYNQKFKGKATLTADKSSSTAYMQLSGLTSEDSAVYFCVRLGVMVYGSSPFWFAYWGQGTLVTVSA VL: DIVMTQSQKFMSTSVGDRVSITCKASQFVSDAVAWYQQKPGQSPKLLICSASYRYTGVPDRFTGSGSGTDFTFTISSVRTEDLAVYYCQQHYIVPYTFGGGTTLEIE	–	no binding	binds
12A11 (antibody, V domains shown, murine hybridoma-derived anti-KLB antibody; also called KLBmAb2) VH: EVKFLESGGGLVQPGGSLRLSCAVSGIDFSRYWMSWVRQAPGKGLEWIGEISPDSSTINYTPSLKDKFVISRDNAKNTLYLQMSKVRSADTALYYCARPSPALDYWGQGTLVTVSA VL: DIVMTQSPATLSVTPGDRVSLSCRASQSISDYVYWYQQKSHESPRLLIIYASQSISGIPSRFSGSGSGSDFTLSINSVEPEDVGVYYCQNGHNFPYTFGGGTKLEIK	binds	no binding	binds
8E1 (antibody, V domains shown, murine hybridoma-derived anti-KLB antibody) VH: EVQLQQSGAELVKPGASVKLSCTAADFNIKDTYMHWVKQRPEQGLEWIGRIDPSNGNAKYDPKFQGKASITADSSSNTAYLHLSSLTSEDTAVYYCASRALGNGYALGYWGQGTSVTVSS VL: DIQMTQSSSYLSVSLGGSVTITCKASDHINNWLAWYQQKPGNAPRLLIYGTTNLETGVPSRFSGSGSGRDYILSITSLQSEDVASYYCQQYWNTPFTFGSGTKLEIK	binds	no binding	binds
25F7 (antibody, V domains shown, murine hybridoma-derived anti-KLB antibody) VH: EVQLQQSGAELLKPGASVRLSCTASGFNIQDTFTHWVRQRPEQGLEWIGRIDPSNGNTKYDPKFQGKAKILADTSSNTAYLQLIGLTSEDTAVYYCASRALGNGYAMDYWGQGTSVTVSS VL: DIQMTQSSSYLSVSLGGRVTITCKASDHINNWLAWYQQKPGNAPRLLISGASNLETGIPSRFSGSGSGKDYTLTITSLQTEDVATYYCQQYWNTPFTFGSGTKLEIK	binds	no binding	binds
12B8 (antibody, V domains shown, murine hybridoma-derived anti-KLB antibody) VH: QIQLVQSGPELKKPGETAKISCKASGYAFSNYGMNWVKQAPGKDLKWMGWIDTDTGEATYTDDFKGRFVFSLETSASTAYLQINNLKNEDMATYFCAREEYGLFGFPYWGHGTLVTVSA VL: DIQMTQSSSSFSVSLGDRVTITCKASEDIYNRLAWYQQKPGSAPRLLISAATSLETGVPSRFSGSGSGKDYTLSITSLQTEDVATYYCQQYWSNPLTFGAGTKLEIK	binds	no binding	binds
46C3 (antibody, V domains shown, murine hybridoma-derived anti-KLB antibody) VH: EVQLQQSGAELVKPGASVKLSCTASDFNIIDTYIHWVKQRPEQGLEWIGRIDPANGNTKYDPKFQDKAALTSDTDSNTAYLLFNSLTSEDTAVYYCARGTSYSWFAYWGQGTLVSVSA VL: AVLMTQTPLSLPVSLGDQASISCRSSQNIVHSDGNTYLEWYLQKPGQSPKLLIYKVSNRFSGVPDRFSGSGSGRDFTLKISRVEAGDLGVYYCFQGSHVLTFGAGTRLELK	–	no binding	no binding
11F1 (antibody, V domains shown, murine hybridoma-derived anti-KLB antibody) VH: EVQLVESGGGLVKPGGSLKLSCAPSGFTFSSYGISWVRQTPEKRLEWVATVSSGGRYTYYPDSVKGRFTISRDNAENTLYLQMSSLRSEDTAMYYCTRGGDGYALDYWGQGTSVTVSS VL: DIQMTQTTSSLSASLGDRVTIICSASQVISNYLNWYQQKPDGTVKLLIYFTSSLRSGVPSRFSGSGSGTDYSLTISNLEPEDVATYFCQQYSKLPWTFGGGTKLELK	–	no binding	binds
24A1 (antibody, V domains shown, murine hybridoma-derived anti-KLB antibody) VH: QVQLKQSGAELVRPGTSVTLSCKASGYTFTDYEMHWMKQTPVYGLEWIGAIWPENADSVYNQKFKGKVTLTADKSSSTAYMDLRSLTSEDSAVYYCTREGGNYWGQGTTLTVSS VL: not shown	binds	binds	binds
8C5 (antibody, V domains shown, murine hybridoma-derived anti-KLB antibody; also called KLBmAb1) VH: QVQLKQSGPGLVQPSQSLSVACTVSDFSLTTYGVHWVRQSPGKGLEWLGVIWSGGSTDYNAAFISRLTISKDNSKSQVFFKMNSLQTTDTAIYYCARDYGSTYVDAIDYWGQGTSVTVSS VL: DIVLTQSPTSLAVSLGQRATISCRASESVESYGNRYMTWYQQKPGQPPKLLIYRAANLQSGIPARFSGSGSRTDFTLTIDPVEADDVATYYCQQSNEDPWTFGGGTKVEIK	binds	binds	binds
14E6 (antibody, V domains shown, murine hybridoma-derived anti-KLB antibody) VH: EVPLQQSGPELVKPGATVKISCKPSGDTFTEYTMNWVRQSHGKSLEWIGGINPNNGETSYNQKFKGKATLTVDKSSSTAFMDLRILTSEDSAVYFCARKTTNYWGQGTTLIVSS VL: DIQMTQSPSSLSASLGERVSLTCRASQEISGYLSWLQQKPDGTIKRLIYAASTLDSGVPRRFSGSRSGSDYSLTISSLESEDFADYYCLQYGSYPWTFGGGTKLELK	–	binds	binds
14C6 (antibody, V domains shown, murine hybridoma-derived anti-KLB antibody) VH: QIQLQQSGAELMKPGASVRMSCKASGYTFSSYWIEWVKQRSGHGLEWIGEIFPGGGSTIYNENFRDKATFTADTSSNTAYMQLSSLTSEDSAVYFCARRGYYDAAWFDYWGQGTLVTVSA VL: QIVLTQSPAIMSASPGERVTLTCSASSSLSSSYLYWYQQKPGSSPKLWIYGASNLASGVPGRFSGSGSGTSYSLTISSMEAEDAASYFCHQWSSYPLTFGSGTKLELK	binds	binds	binds
